Reference: publication PMC6698648, “A Fanci knockout mouse model reveals common and distinct functions for FANCI and FANCD2” (Nucleic Acids Research, 2019)

Biological target: T1, Human RAD51 (human, UniProt Q06609 1-339)
T1 sequence (looked up): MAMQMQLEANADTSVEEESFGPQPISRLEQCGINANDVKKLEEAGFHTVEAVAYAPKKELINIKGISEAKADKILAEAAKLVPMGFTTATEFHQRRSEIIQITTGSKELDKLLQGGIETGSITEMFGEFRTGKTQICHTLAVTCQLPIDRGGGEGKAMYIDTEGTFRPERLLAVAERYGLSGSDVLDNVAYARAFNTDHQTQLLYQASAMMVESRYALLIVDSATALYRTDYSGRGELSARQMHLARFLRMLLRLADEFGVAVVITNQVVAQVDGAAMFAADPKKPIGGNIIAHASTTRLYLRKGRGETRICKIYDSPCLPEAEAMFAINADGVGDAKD
Experiment: cell-based or functional assay

- RAD51-mediated D-loop formation, RAD51 at 400 nM with added FANCI (up to 100 nM), fold activation relative to RAD51 alone: 8 fold
B1: FANCI (natural protein, UniProt Q9NVI1 1-1328, looked up)
chain: MDQKILSLAAEKTADKLQEFLQTLREGDLTNLLQNQAVKGKVAGALLRAIFKGSPCSEEAGTLRRRKIYTCCIQLVESGDLQKEIASEIIGLLMLEAHHFPGPLLVELANEFISAVREGSLVNGKSLELLPIILTALATKKENLAYGKGVLSGEECKKQLINTLCSGRWDQQYVIQLTSMFKDVPLTAEEVEFVVEKALSMFSKMNLQEIPPLVYQLLVLSSKGSRKSVLEGIIAFFSALDKQHNEEQSGDELLDVVTVPSGELRHVEGTIILHIVFAIKLDYELGRELVKHLKVGQQGDSNNNLSPFSIALLLSVTRIQRFQDQVLDLLKTSVVKSFKDLQLLQGSKFLQNLVPHRSYVSTMILEVVKNSVHSWDHVTQGLVELGFILMDSYGPKKVLDGKTIETSPSLSRMPNQHACKLGANILLETFKIHEMIRQEILEQVLNRVVTRASSPISHFLDLLSNIVMYAPLVLQSCSSKVTEAFDYLSFLPLQTVQRLLKAVQPLLKVSMSMRDCLILVLRKAMFANQLDARKSAVAGFLLLLKNFKVLGSLSSSQCSQSLSVSQVHVDVHSHYNSVANETFCLEIMDSLRRCLSQQADVRLMLYEGFYDVLRRNSQLANSVMQTLLSQLKQFYEPKPDLLPPLKLEACILTQGDKISLQEPLDYLLCCIQHCLAWYKNTVIPLQQGEEEEEEEEAFYEDLDDILESITNRMIKSELEDFELDKSADFSQSTSIGIKNNICAFLVMGVCEVLIEYNFSISSFSKNRFEDILSLFMCYKKLSDILNEKAGKAKTKMANKTSDSLLSMKFVSSLLTALFRDSIQSHQESLSVLRSSNEFMRYAVNVALQKVQQLKETGHVSGPDGQNPEKIFQNLCDITRVLLWRYTSIPTSVEESGKKEKGKSISLLCLEGLQKIFSAVQQFYQPKIQQFLRALDVTDKEGEEREDADVSVTQRTAFQIRQFQRSLLNLLSSQEEDFNSKEALLLVTVLTSLSKLLEPSSPQFVQMLSWTSKICKENSREDALFCKSLMNLLFSLHVSYKSPVILLRDLSQDIHGHLGDIDQDVEVEKTNHFAIVNLRTAAPTVCLLVLSQAEKVLEEVDWLITKLKGQVSQETLSEEASSQATLPNQPVEKAIIMQLGTLLTFFHELVQTALPSGSCVDTLLKDLCKMYTTLTALVRYYLQVCQSSGGIPKNMEKLVKLSGSHLTPLCYSFISYVQNKSKSLNYTGEKKEKPAAVATAMARVLRETKPIPNLIFAIEQYEKFLIHLSKKSKVNLMQHMKLSTSRDFKIKGNILDMVLREDGEDENEEGTASEHGGQNKEPAKKKRKK
